Measured values from paper PMC9171410 (EMBO Reports, 2022).

What was measured:
Gid10^65–284 = target: T1, Gid10^65–284 (S. cerevisiae, UniProt P53242 65-284); test: crystal structure
T1 sequence: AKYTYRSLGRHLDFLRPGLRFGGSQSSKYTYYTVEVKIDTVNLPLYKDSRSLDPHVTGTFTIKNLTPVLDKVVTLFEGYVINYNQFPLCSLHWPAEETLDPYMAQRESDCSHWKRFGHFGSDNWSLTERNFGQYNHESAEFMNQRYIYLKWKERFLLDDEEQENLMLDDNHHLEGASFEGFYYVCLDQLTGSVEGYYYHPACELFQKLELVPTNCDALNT

Gid10^57–292 = target: T2, Gid10^57–292 (S. cerevisiae, UniProt P53242 57-292); test: ITC
T2 sequence: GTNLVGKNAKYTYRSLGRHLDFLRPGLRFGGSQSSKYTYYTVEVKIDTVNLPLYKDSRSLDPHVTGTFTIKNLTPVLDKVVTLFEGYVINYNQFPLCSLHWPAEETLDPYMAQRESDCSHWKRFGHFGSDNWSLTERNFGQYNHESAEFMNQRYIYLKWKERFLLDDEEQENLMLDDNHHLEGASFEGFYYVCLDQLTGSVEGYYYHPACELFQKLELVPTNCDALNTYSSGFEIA

PFITSRPW [Art2 degron peptide PFITSRPW]: binds (Gid10^65–284).

Binder PFITSRPVAW [Art2 degron peptide PFITSRPVAW] has a Kd (Gid10^57–292) of 1.03 µM.
